# Measurements as given in publication PMC7237485.
# Biological target: HA-tagged WT WD40 (FBW7ΔDF) (human) (UniProt Q969H0)
substance,measurement,value
"Merkel cell polyomavirus small T antigen, wild type (natural protein)","LT protein turnover (t1/2) in a cycloheximide chase, 293 cells co-transfected with LT and sT; FBW7 is that of the cells, not the ΔDF construct",> 10 h
